The text below walks through data of patent US12472269B2, “Liver-specific inducible promoters and methods of use thereof” (ASKBIO INC., priority 2019, dated 2025).

The subject of one data set is AXOL ARE-hepatocytes. In words: Luciferase expression from PBREM promoters in AXOL ARE-hepatocytes, induction by CITCO. The class given is cell-based, human. The conditions noted are these: induction with CITCO, mean of 3 biological replicates. An excerpt: Axol Assay-Ready Expanded (ARE) Hepatocytes are primary human hepatocytes that have been expanded in vitro. Large batch sizes (up to 2000 vials) are available, ensuring a reliable, ready-to-use and consistent source of primary hepatocytes. ARE Hepatocytes express CYP enzymes, are metabolically functional, are polarized and can be infected by the Hepatitis C virus. AXOL ARE-hepatocytes express CAR negating the need to transfect with a CAR-expressing plasmid.
• AXOL assay-ready expanded (ARE) hepatocytes (Axol, ax3701) • ARE hepatocyte thawing medium (Axol, ax3705) • ARE maintenance medium (Axol, ax3710) • Virimer red transfection reagent (Lipocalyx, VR04-02-15) • CITCO, lucifierase, β-galactosidase and BCA kits as described above
ARE hepatocytes were cultured and transfected as described in the manufacturer's manual. 200,000 cells were seeded in 2 ml culture medium in collagen-coated 6 well plate. The cells were incubated for 4 h at 37° C. and 5% CO2 for sufficient adhesion. 200 μl of transfection mixture containing the DNA to be transfected (PB1-MinTK/PB1-CMV/PB1-SV40 operably linked with luciferase and β-galactosidase containing promoter) was added and the cells were incubated on an orbital shaker at 100 rpm for three hours at 37° C. and 5% CO2. 3 hrs after transfection CITCO was added to the appropriate wells. Cells were incubated under static conditions at 37° C. and 5% CO2 overnight and in the morning the medium was replaced with fresh ARE Hepatocyte Maintenance Medium. Readout was 24 hrs after induction. […]

The test system of data set [1] is Huh7 and ARE primary cells. In words: Effect of AAV ITRs: pAAV constructs transfected into Huh7 and ARE primary cells, compared with pGL4.10. The class given is cell-based, human. The conditions noted are these: mean of 3 biological replicates. An excerpt: Following from Example 3, it was decided to take PB1-MinTK and PB1-2-MinTk forward for in vivo studies. To facilitate this the two aforementioned constructs were cloned into pAAV vector (Takara, Clontech) to allow for the preparation of AAV viruses. The inserts where cloned using restriction digest of the pAAV plasmid and PCR amplification of the original pGL4.10 constructs.
We investigated the effect of the Inverted Terminal Repeats (ITRs) on the activity of the promoters. This was done as we have observed interference from the AAV ITRs in other projects. To this end, the pAAV-PB1-MinTk and pAAV-PB1-2-MinTk were transfected into Huh7 and ARE primary cells as previously described and their activity assessed.

For the next data set, the system named is AXOL ARE hepatocytes. In words: Luciferase expression from pAAV constructs in AXOL ARE hepatocytes without CITCO, with CITCO and after CITCO withdrawal. The class given is cell-based, human. Conditions: pAAV vector. On the procedure:
Luciferase expression from the PB1-MinTK and PB1-2-MinTK constructs in the pAAV vector in AXOL ARE hepatocytes is inducible by CITCO (1 μM) but reduces after removing CITCO as shown in FIG. 5.

The next data set concerns CD1 male mice. In words: In vivo bioluminescence imaging of mice injected with AAV9 constructs, induction by phenobarbital. On the procedure:
• Seed HEK 293-AAV cells in 15 cm plates. To be 70-80% confluent on the day of transfection • Final volume on each plate: 15 ml Day 2: Prepare Transfection Mix: • DNA mix/plate: pDG9 (Packaging plasmid for AAV9): 10.5 μg/pHGTI (Ad. Helper plasmid): 31.5 μg/Vector plasmid: 10.5 μg/Prepare in serum free DMEM/Optimem • Transfer mix/plate: PEI: 125 μl/Prepare in serum free DMEM/Optimem • Add DNA mix into transfection mix. Mix and leave at room temperature for 15-20 mins. • Add 3 ml of transfection mix to each plate drop-wise and gently distribute. Incubate for 24 h. Day 3: • Replace media with 15 ml DMEM supplemented with P/S and 2% FCS. Leave for 48 h. Day 5: • Collect supernatant and pool in 50 ml tubes, 25 ml each tube. Store at −20° C. • Collect cells: Add 5 ml of PBS to each plate→scrape and collect in 50 ml tubes. • To wash plates, add another 1 ml of PBS and collect. • Spin at 1500 rpm for 5 mins. • Remove supernatant and resuspend pelleted cells in 1 ml/plate TD lysis buffer→pool • Store at −80′C. Endonuclease Treatment Cells: • Freeze and thaw pellets 5 times→˜20 mins at 37° C. then ˜20 mins in dry ice (or −80° C.). • Add 25 μl/ml cells of 20% Deoxycholate (or 50 μl/ml of 10% Deoxycholate). • Add 8 μl/ml cells of benzonase. • Incubate at 37° C. for 30 mins. • Spin at 4 Krpm for 30 mins. • Filter supernatant using […] filters. • Store at 4° C. for up to 24 h. Supernatant: • Add 2.5 μl/25 ml supernatant of benzonase. • Add 50 μl/25 ml supernatant of MgSO4. • Incubate at 37° C. for 30 mins. • Spin at 4 Krpm for 30 mins. • Filter supernatant using […] filters. • Store at 4′C for up to 24 h. Hplc Purification • Place both lines in 20% ETOH→template→system wash • Put line A in PBS and line B in Glycine→template→system wash • Place the column in the machine→manual run→flowrate: 5 ml/min→Run for 25 ml or until the UV line is flat. • Prepare FACS tubes (10 for cells and more for supernatant): add 30 μl/tube Tris→put in the machine to collect vectors. • Place the waste lines in a separate tube to be able to run them again through the column. • Run samples (flowrate low, depending on how fast the system and how concentrated the sample is; for cells it is slower, for supernatant it is higher). • After running the waste through the column, wash with PBS→flowrate: 5 ml/min until the UV line is flat. • Set→fraction size: 1 ml; Flowrate: 1 ml/min; concentration % B: 100%→run. • Start collecting: Look for the peak. The peak indicates vector purification. Mark the tubes containing these vectors. • Save programme before exiting. • Wash with PBS→75 ml, 5 ml/min • Wash with Na3PO4 (to store the column in)→75 ml, 5 ml/min • Remove column and store at 4° C. • Wash the machine with PBS→template→system wash • Wash the machine with 20% ETOH→template→system wash • Put both lines in 20% ETOH and shut down • Add 2 L of PBS into a big bucket and put the Dialysis cassette (Side-A-Lyzer; Thermo scientific) to prime. • Collect the vectors from the marked FACS tubes using a syringe and needle and add into the dialysis cassette→remove excess air from the membrane, carefully place the rubber on top of the cassette and let it float in the PBS-containing bucket→leave over night at room temperature on a slow rotating rotor. Next Day: • Prime membrane by adding 5 ml PBS onto a centrifugal filter (Amico Ultra 15; MERCK)→spin for 5 mins at 4 Krpm • Remove excess PBS from inside the membrane. • Take vectors out from the cassette and load onto the membrane→spin for 5 mins at 4 Krpm • Wash the membrane with the vectors inside few times, then collect into 2 ml centrifuge tube filter 0.22 μM (Spin-X; COSTAR) • Spin for 3 mins at 13 Krpm. • Remove filter and aliquot: 1×100 μl (for injection), the rest in 10-2 μl aliquots. • Store in −80° C. • Virus quantification was performed using qRT-PCR with primers and probes for the luciferase gene. Mice Experiment […]

[2] abbreviates: AAV9, phenobarbital intraperitoneally.

B1: PB1-2-MinTK: promoter: 3×PBREM and min-TK promoter, SEQ ID NO: 11 (nucleic acid)
DNA: TCTGTACTTTCCTGACCTTGGCACAGTGCCACCATCAACTTGCCTGACACCCATTACTCGCATCCATTCTCTCTGTACTTTCCTGACCTTGGCACAGTGCCACCATCAACTTGCCTGACACCGCACTGAAGGTCCTCAATCGTCTGTACTTTCCTGACCTTGGCACAGTGCCACCATCAACTTGCCTGACACCGCTGGGAGTTCGTAGACGGAGATCCGGCCCCGCCCAGCGTCTTGTCATTGGCGAATTCGAACACGCAGATGCAGTCGGGGCGGCGCGGTCCGAGGTCCACTTCGCATATTAAGGTGACGCGTGTGGCCTCGAACACCGAGCGACCCTGCAGCGACCCGCTTAACAGCGTCAACAGCGTGCCGCAGATCTCGAGGAGCTTGGCGAGATTTTCAGGAGCTAAGGAAGCTAAAC
modifications: PB1-2-MinTk (3xPBREM)
For B1, the “induced luciferase expression as a ratio to CMV-IE” value in the data set with AXOL ARE-hepatocytes came out at 4.1. For the same molecule, the “induction of luciferase expression across pGL4.10 and pAAV vectors and cell types” value in data set [1] is “comparable across vectors and cell types”. Moreover, the “luciferase expression with CITCO” value in the data set with AXOL ARE hepatocytes (CITCO (1 μM)) was “inducible”. Further, the “activity of the promoter after removal of CITCO” value in the data set with AXOL ARE hepatocytes (CITCO withdrawal) is on record as “almost baseline levels”. For the same molecule, the “luciferase expression before induction” value in the data set on CD1 male mice (0 hrs) was “no expression of the luciferase gene”. Further, in the data set on CD1 male mice (setting [2]), the “time at which induction is complete” value was found to be 48 h and the “time of maximal activity after induction” value stood at 24 h. For the same molecule, in the data set on CD1 male mice (AAV9 via tail vein), the “tissue distribution of luciferase expression” value is “confined to the liver”.
